Laboratory results reported in US20140120095A1 (Boehringer Ingelheim, published 2014).
Substitutions are numbered along the chain they refer to. Where two headings read alike, the source gives them in different places. One block for each binder: values may come before it.

Columns and labels:
recombinant human DLL4 [1] = molecular target: T1, recombinant human DLL4 (human, UniProt Q9NR61 25-522); experiment: cell-based or functional assay
[2] = molecular target: T2, human DLL4 overexpressed on cells (human, UniProt Q9NR61 27-685); experiment: competitive FMAT, hNotch1-Fc on CHO-hDLL4
T2 construct: full length human DLL4 on CHO or HEK293 cells; also called CHO-hDLL4; CHO-hDII4

[3] = molecular target: T2, human DLL4 overexpressed on cells; experiment: FACS titration on HEK293-hDLL4 cells, MCF
Summary of the method: (§1)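 HEK293 cells overexpressing DLL4 (transient or stable) were incubated with VHH titrations for 30 min on ice. After washing, binding was detected with anti-c-myc-Alexa647 by flow cytometry, and the mean MCF was used to calculate EC50.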

[4] = molecular target: T3, cynomolgus DLL4 overexpressed on cells (cynomolgus, UniProt Q9NR61 27-685 (human entry)); experiment: FACS titration on HEK293-cDLL4 cells, MCF
T3 construct: also called cyno DII4; cDLL4
T3 chain: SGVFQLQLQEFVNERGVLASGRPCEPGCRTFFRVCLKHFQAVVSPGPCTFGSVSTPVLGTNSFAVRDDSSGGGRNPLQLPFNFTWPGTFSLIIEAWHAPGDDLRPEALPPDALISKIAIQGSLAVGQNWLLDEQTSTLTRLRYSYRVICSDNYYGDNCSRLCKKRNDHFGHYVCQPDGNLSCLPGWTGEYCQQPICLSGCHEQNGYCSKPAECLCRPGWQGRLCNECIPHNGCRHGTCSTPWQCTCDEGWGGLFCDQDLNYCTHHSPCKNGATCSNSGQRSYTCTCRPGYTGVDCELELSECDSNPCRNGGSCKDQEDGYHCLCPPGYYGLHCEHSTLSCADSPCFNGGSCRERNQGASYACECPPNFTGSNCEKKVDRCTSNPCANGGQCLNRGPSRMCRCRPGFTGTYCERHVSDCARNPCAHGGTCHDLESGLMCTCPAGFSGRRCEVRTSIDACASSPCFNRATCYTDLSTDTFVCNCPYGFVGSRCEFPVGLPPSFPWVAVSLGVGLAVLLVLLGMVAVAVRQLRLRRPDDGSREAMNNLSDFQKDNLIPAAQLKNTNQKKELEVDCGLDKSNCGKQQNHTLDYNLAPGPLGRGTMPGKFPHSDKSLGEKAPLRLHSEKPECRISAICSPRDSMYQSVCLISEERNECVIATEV
Summary of the method: as §1

recombinant human DLL4 [5] = molecular target: T1, recombinant human DLL4; experiment: competition ELISA, biot-hDLL4 to coated hNotch1-Fc
Source text: Residual binding of biotinylated human DII4 is detected using horseradish peroxidase (HRP) conjugated extravidin (Sigma, St. Louis, Mo., USA) (FIG. 3 A-C). Human DII4 is biotinylated as described above.

human Jagged-1 = molecular target: T4, human Jagged-1 (human, UniProt P78504 34-1067, limits assumed); experiment: binding ELISA on coated recombinant human Jagged-1, OD 405 nm
T4 construct: also called hJagged-1; hJAG1
Summary of the method: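 Plates coated overnight at 4° C with 1 μg/mL ligand, blocked with 1% casein in PBS. VHH dilution series applied; bound VHH detected via mouse anti-myc then anti-mouse-AP conjugate.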

human Jagged-1 (Alexis) = molecular target: T5, human Jagged-1 (Alexis) (human, UniProt P78504 34-1067, limits assumed); experiment: binding ELISA on coated human Jagged-1 (Example 5.8, Example 7), OD 405 nm
T5 construct: also called hJag-1; hJAG1

[6] = molecular target: T6, recombinant human DLL4 (C-terminally His-tagged extracellular domain, R&D Systems) (human, UniProt Q9NR61 25-522, biotinylated in the competition ELISA); experiment: binding ELISA on coated recombinant human DLL4 (Example 5.8, Example 7), OD 450 nm
T6 construct: also called rhDLL4; hDLL4

[7] = molecular target: T7, recombinant mouse DLL4 (C-terminally His-tagged extracellular domain, R&D Systems) (mouse, UniProt Q9JI71 27-532); experiment: binding ELISA on coated recombinant mouse DLL4 (Example 5.8, Example 7), OD 450 nm
T7 construct: extracellular domain; also called rmDLL4; mDLL4
T7 sequence (Q9JI71 27-532): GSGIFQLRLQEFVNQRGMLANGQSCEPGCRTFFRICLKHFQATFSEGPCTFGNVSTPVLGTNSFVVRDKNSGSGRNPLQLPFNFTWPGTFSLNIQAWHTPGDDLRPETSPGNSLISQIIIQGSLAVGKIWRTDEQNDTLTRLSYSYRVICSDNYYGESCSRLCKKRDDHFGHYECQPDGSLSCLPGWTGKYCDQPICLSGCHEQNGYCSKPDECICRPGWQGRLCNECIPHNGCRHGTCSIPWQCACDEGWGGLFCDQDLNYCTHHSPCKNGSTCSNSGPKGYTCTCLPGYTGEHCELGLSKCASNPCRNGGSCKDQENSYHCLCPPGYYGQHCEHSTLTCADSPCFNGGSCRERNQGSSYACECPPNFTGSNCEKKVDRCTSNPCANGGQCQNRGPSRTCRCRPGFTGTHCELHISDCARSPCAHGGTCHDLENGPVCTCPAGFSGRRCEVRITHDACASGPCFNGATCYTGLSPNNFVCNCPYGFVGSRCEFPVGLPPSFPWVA

human DLL1 (Alexis) = molecular target: T8, human DLL1 (Alexis) (human, UniProt O00548 18-545, limits assumed); experiment: binding ELISA on coated human DLL1 (Example 5.8, Example 7), OD 450 nm
T8 construct: also called hDLL1
T8 sequence (looked up): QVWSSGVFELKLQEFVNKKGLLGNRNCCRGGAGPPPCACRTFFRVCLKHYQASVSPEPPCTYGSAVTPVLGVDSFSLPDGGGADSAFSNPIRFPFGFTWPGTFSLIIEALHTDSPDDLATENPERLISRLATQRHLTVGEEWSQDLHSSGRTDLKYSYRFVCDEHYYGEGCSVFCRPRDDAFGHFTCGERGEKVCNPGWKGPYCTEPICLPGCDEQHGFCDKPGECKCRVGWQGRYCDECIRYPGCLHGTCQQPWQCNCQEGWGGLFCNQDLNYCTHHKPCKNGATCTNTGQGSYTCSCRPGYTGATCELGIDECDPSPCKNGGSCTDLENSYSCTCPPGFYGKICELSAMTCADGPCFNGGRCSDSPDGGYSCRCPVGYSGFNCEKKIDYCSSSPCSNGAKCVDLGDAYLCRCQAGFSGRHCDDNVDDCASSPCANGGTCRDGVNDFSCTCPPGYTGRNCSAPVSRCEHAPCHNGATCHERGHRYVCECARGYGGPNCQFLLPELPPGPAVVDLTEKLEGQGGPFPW

[8] = molecular target: T7, recombinant mouse DLL4 (C-terminally …); experiment: binding ELISA on coated recombinant mouse DLL4 (Example 5.8, Example 7), OD 450 nm; remark: listed apart in the source

- IC50 (nM) (experiment 1), DLL4 proliferation assay (HUVEC) (recombinant human DLL4 [1]): 11 nM
- IC50 (nM) (experiment 2), DLL4 proliferation assay (HUVEC) (recombinant human DLL4 [1]): 6.8 nM
- IC50 [2]: 10.6 nM
- EC50 (read off the curve) [3]: ~4 nM
- EC50 (read off the curve) [4]: ~3 nM
- IC50 (recombinant human DLL4 [5]): 4.9 nM
- binding result (human Jagged-1): no binding (tested: 5e-7 M)
B1: DLLBII56A09 (VHH)
VHH: EVQLVESGGGLVQPGGSLRLSCAASGFTFDDYAIGWFRQAPGKEPEGISCISSSGGITYYADSVKGRFTTSRDNAKNTVYLQMNSLKPEDTAVYYCATPGIAACRGIHYTGQGTQVTVSS
notes: also called 56A9; DLLBII56A9

- IC50 (nM) (experiment 1), DLL4 proliferation assay (HUVEC) (recombinant human DLL4 [1]): 10000 nM
- IC50 [2]: 22 nM
- EC50 (read off the curve) [3]: ~20 nM
- EC50 (read off the curve) [4]: ~4 nM
- IC50 (recombinant human DLL4 [5]): 9.1 nM
- binding result (human Jagged-1): no binding (tested: 5e-7 M)
B2: DLLBII115A05 (VHH)
VHH: EVQLVESGGGLVQPGGSLRLSCAASGFTFGSYDMSWVRRSPGKGPEWVSSINSGGGSTYYADFVKGRFTISRDNAKNTLYLQMNSLKPEDTAVYYCAADRYIRARQGDYWGAYEYDYWGQGTQVTVSS
notes: also called 115A5; DLLBII115A5

- EC50 (read off the curve) [6]: ~0.6 nM
- EC50 (read off the curve) [7]: ~1 nM
B3: DLLBII136C07 (VHH, not shown: small tags and cut ends)
VHH: B2 VHH with F63Y, R103W, D108E
- binding result (human Jagged-1 (Alexis)): no binding (tested: log[M] -6.1 (about 8e-7 M))

- EC50 (read off the curve) [6]: ~0.6 nM
- EC50 (read off the curve) [7]: ~1 nM
B4: DLLBII133A09 (VHH, not shown: small tags and cut ends)
VHH: B2 VHH with S50A, F63Y, R103W, D108E, E114A
- binding result (human Jagged-1 (Alexis)): no binding (tested: log[M] -6.1 (about 8e-7 M))

- EC50 (read off the curve) [6]: ~0.6 nM
- EC50 (read off the curve) [7]: ~1 nM
B5: DLLBII015 (VHH, not shown: small tags and cut ends)
VHH: B2 VHH with F29I, S50A, F63Y, R103W, D108E, E114A
- binding result (human Jagged-1 (Alexis)): no binding (tested: log[M] -6.1 (about 8e-7 M))

- EC50 (read off the curve) [6]: ~0.4 nM
- EC50 (read off the curve) [7]: ~0.4 nM
B6: DLLBII133G05 (VHH, not shown: small tags and cut ends)
VHH: B2 VHH with S50A, A61T, F63Y, R103W, D108E, E114A
- binding result (human Jagged-1 (Alexis)): no binding (tested: log[M] -6.1 (about 8e-7 M))

- IC50 (nM) (experiment 1), DLL4 proliferation assay (HUVEC) (recombinant human DLL4 [1]): 401 nM
- IC50 (nM) (experiment 2), DLL4 proliferation assay (HUVEC) (recombinant human DLL4 [1]): 112 nM
- IC50 [2]: 24.6 nM
- EC50 (read off the curve) [3]: ~30 nM
- EC50 (read off the curve) [4]: ~9 nM
- IC50 (recombinant human DLL4 [5]): 9.5 nM
- binding result (human Jagged-1): no binding (tested: 5e-7 M)
B7: DLLBII101G08 (VHH)
VHH: EVQLVESGGGLVQAGGSLRLSCAASGRTFSSYAMAWFRQAPGKEREFVAAIRWSGGTAYYADSVQGRFTISRDNAKNTVYLQMNSLKPEDTAVYYCANRAADTRLGPYEYDYWGQGTQVTVSS
notes: also called 101G8; DLLBII101G8

B8: DLLBII101G08 (VHH, not shown: small tags and cut ends)
VHH: B7 VHH
notes: parent VHH; also called 101G08 (wt); 101G8
- binding result (human DLL1 (Alexis)): no binding (tested: log[M] -6.1 (about 8e-7 M))

- EC50 (read off the curve) [8]: ~0.8 nM
B9: DLLBII129D08 (VHH, not shown: small tags and cut ends)
VHH: B7 VHH with F37Y, F47Y, A101P, G106E, E109L
- binding result (human DLL1 (Alexis)): no binding (tested: log[M] -6.1 (about 8e-7 M))

- EC50 (read off the curve) [8]: ~0.8 nM
B10: DLLBII129E11 (VHH, not shown: small tags and cut ends)
VHH: B7 VHH with F37Y, F47Y, A101P, G106R, E109L
- binding result (human DLL1 (Alexis)): no binding (tested: log[M] -6.1 (about 8e-7 M))

- EC50 (read off the curve) [8]: ~0.8 nM
B11: DLLBII129B05 (VHH, not shown: small tags and cut ends)
VHH: B7 VHH with F37Y, F47Y, A101P, G106A, Y112H
- binding result (human DLL1 (Alexis)): no binding (tested: log[M] -6.1 (about 8e-7 M))
